Tests used:
[1] = biological target: the molecule itself; test: SEC-MALS; HelQ with ATP-Mg2+: pre-incubated in 5 mM MgCl2 and 5 mM ATP at 37°C for 10 min, running buffer with 0.2 mM ATP and 0.2 mM MgCl2, Superdex-200
[2] = biological target: the molecule itself; test: SEC-MALS; HelQ apoenzyme, 200 ul of 2.4 uM monomer, Superdex-200, 50 mM Tris-HCl pH 8.0, 150 mM NaCl, 10% glycerol, pre-incubated 10 min at 37°C; no ATP-Mg2+
[3] = biological target: the molecule itself; test: SEC; analytical gel filtration of C-HelQ in ATP-Mg2+ and ssDNA, Superdex-200, against mass standards

| Protein | stoichiometry N [1] | stoichiometry N [2] | stoichiometry N [3] |
| --- | --- | --- | --- |
| HelQ helicase, full length, human (enzyme, UniProt Q8TDG4 1-1101, looked up, human HelQ DNA repair helicase, full length; Tetramer as apoenzyme and dimer with ATP-Mg2+ by SEC-MALS; also called HelQ apoenzyme; His-SUMO-SF-tagged HelQ; source: SF9 insect cells (Bac-to-Bac baculovirus), purified (ammonium sulphate, Ni-NTA, heparin, Q-sepharose); not shown: His6, N-terminal, kept; SUMO, N-terminal, kept; StrepII-Flag, N-terminal, kept) MDECGSRIRRRVSLPKRNRPSLGCIFGAPTAAELVPGDEGKEEEEMVAENRRRKTAGVLPVEVQPLLLSDSPECLVLGGGDTNPDLLRHMPTDRGVGDQPNDSEVDMFGDYDSFTENSFIAQVDDLEQKYMQLPEHKKHATDFATENLCSESIKNKLSITTIGNLTELQTDKHTENQSGYEGVTIEPGADLLYDVPSSQAIYFENLQNSSNDLGDHSMKERDWKSSSHNTVNEELPHNCIEQPQQNDESSSKVRTSSDMNRRKSIKDHLKNAMTGNAKAQTPIFSRSKQLKDTLLSEEINVAKKTVESSSNDLGPFYSLPSKVRDLYAQFKGIEKLYEWQHTCLTLNSVQERKNLIYSLPTSGGKTLVAEILMLQELLCCRKDVLMILPYVAIVQEKISGLSSFGIELGFFVEEYAGSKGRFPPTKRREKKSLYIATIEKGHSLVNSLIETGRIDSLGLVVVDELHMIGEGSRGATLEMTLAKILYTSKTTQIIGMSATLNNVEDLQKFLQAEYYTSQFRPVELKEYLKINDTIYEVDSKAENGMTFSRLLNYKYSDTLKKMDPDHLVALVTEVIPNYSCLVFCPSKKNCENVAEMICKFLSKEYLKHKEKEKCEVIKNLKNIGNGNLCPVLKRTIPFGVAYHHSGLTSDERKLLEEAYSTGVLCLFTCTSTLAAGVNLPARRVILRAPYVAKEFLKRNQYKQMIGRAGRAGIDTIGESILILQEKDKQQVLELITKPLENCYSHLVQEFTKGIQTLFLSLIGLKIATNLDDIYHFMNGTFFGVQQKVLLKEKSLWEITVESLRYLTEKGLLQKDTIYKSEEEVQYNFHITKLGRASFKGTIDLAYCDILYRDLKKGLEGLVLESLLHLIYLTTPYDLVSQCNPDWMIYFRQFSQLSPAEQNVAAILGVSESFIGKKASGQAIGKKVDKNVVNRLYLSFVLYTLLKETNIWTVSEKFNMPRGYIQNLLTGTASFSSCVLHFCEELEEFWVYRALLVELTKKLTYCVKAELIPLMEVTGVLEGRAKQLYSAGYKSLMHLANANPEVLVRTIDHLSRRQAKQIVSSAKMLLHEKAEALQEEVEELLRLPSDFPGAVASSTDKA | 2 | 4 | – |
| C-HelQ, HelQ 'core' helicase (826 amino acids) (domain or fragment, human, UniProt Q8TDG4 275-1101, looked up, human HelQ helicase core: the 826 amino acids that match Hel308; excludes the 274 amino acid N-terminal region; 85 kDa; The start at 275 follows from the excluded 274 residue N-terminal region; also called core HelQ helicase; source: Escherichia coli, purified (as described for HelQ)) GNAKAQTPIFSRSKQLKDTLLSEEINVAKKTVESSSNDLGPFYSLPSKVRDLYAQFKGIEKLYEWQHTCLTLNSVQERKNLIYSLPTSGGKTLVAEILMLQELLCCRKDVLMILPYVAIVQEKISGLSSFGIELGFFVEEYAGSKGRFPPTKRREKKSLYIATIEKGHSLVNSLIETGRIDSLGLVVVDELHMIGEGSRGATLEMTLAKILYTSKTTQIIGMSATLNNVEDLQKFLQAEYYTSQFRPVELKEYLKINDTIYEVDSKAENGMTFSRLLNYKYSDTLKKMDPDHLVALVTEVIPNYSCLVFCPSKKNCENVAEMICKFLSKEYLKHKEKEKCEVIKNLKNIGNGNLCPVLKRTIPFGVAYHHSGLTSDERKLLEEAYSTGVLCLFTCTSTLAAGVNLPARRVILRAPYVAKEFLKRNQYKQMIGRAGRAGIDTIGESILILQEKDKQQVLELITKPLENCYSHLVQEFTKGIQTLFLSLIGLKIATNLDDIYHFMNGTFFGVQQKVLLKEKSLWEITVESLRYLTEKGLLQKDTIYKSEEEVQYNFHITKLGRASFKGTIDLAYCDILYRDLKKGLEGLVLESLLHLIYLTTPYDLVSQCNPDWMIYFRQFSQLSPAEQNVAAILGVSESFIGKKASGQAIGKKVDKNVVNRLYLSFVLYTLLKETNIWTVSEKFNMPRGYIQNLLTGTASFSSCVLHFCEELEEFWVYRALLVELTKKLTYCVKAELIPLMEVTGVLEGRAKQLYSAGYKSLMHLANANPEVLVRTIDHLSRRQAKQIVSSAKMLLHEKAEALQEEVEELLRLPSDFPGAVASSTDKA | – | – | 2 |

Source: paper PMC8210318, “The HelQ human DNA repair helicase utilizes a PWI-like domain for DNA loading through interaction with RPA, triggering DNA unwinding by the HelQ helicase core” (NAR Cancer, 2021)
